Assay results published in publication PMC2817471.
Read-outs that look alike come from different tables or passages of the source.

T1: XPD (Sulfolobus acidocaldarius, UniProt Q4JC68 1-551)
T1 sequence: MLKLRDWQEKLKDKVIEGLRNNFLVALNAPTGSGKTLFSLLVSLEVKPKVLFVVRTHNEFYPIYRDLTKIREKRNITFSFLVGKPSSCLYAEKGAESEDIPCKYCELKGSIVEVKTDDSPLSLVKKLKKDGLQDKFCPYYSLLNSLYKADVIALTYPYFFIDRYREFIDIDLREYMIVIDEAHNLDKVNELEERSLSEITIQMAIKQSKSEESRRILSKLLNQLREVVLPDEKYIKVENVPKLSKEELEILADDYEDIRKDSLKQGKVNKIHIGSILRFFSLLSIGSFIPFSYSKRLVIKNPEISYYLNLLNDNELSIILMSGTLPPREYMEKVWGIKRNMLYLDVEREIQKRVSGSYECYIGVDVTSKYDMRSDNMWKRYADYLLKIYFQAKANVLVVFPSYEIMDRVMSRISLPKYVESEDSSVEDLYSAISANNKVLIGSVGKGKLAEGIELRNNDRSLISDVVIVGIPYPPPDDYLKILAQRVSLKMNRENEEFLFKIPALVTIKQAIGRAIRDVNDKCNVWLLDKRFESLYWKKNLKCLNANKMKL


Assays:
XPD [1] = molecular target: T1, XPD; assay: ITC
XPD [2] = molecular target: T1, XPD; assay: ITC; remark: listed apart in the source

Row | Binder | Kd (XPD [1]) [µM] | Kd (XPD [2]) [µM]
1 | TTTTTTTT (ssDNA) [ITC-T8] | > 40 | –
2 | TTTTTTTTTTTT (ssDNA) [ITC-T12] | – | 5.6
